Measured values reported in article PMC11176775, “Impact of DNA ligase 1 and IIIα interactions with APE1 and polβ on the efficiency of base excision repair pathway at the downstream steps” (The Journal of Biological Chemistry, 2024).

Target: DNA polymerase β (1–335 amino acids), as used in SEC and in the repair assays (UniProt P06746 1-335)
Test: cell-based or functional assay

B1: LIG1▵N-terminal (262–919 amino acids) (domain or fragment)
chain: DPSGYNPAKNNYHPVEDACWKPGQKVPYLAVARTFEKIEEVSARLRMVETLSNLLRSVVALSPPDLLPVLYLSLNHLGPPQQGLELGVGDGVLLKAVAQATGRQLESVRAEAAEKGDVGLVAENSRSTQRLMLPPPPLTASGVFSKFRDIARLTGSASTAKKIDIIKGLFVACRHSEARFIARSLSGRLRLGLAEQSVLAALSQAVSLTPPGQEFPPAMVDAGKGKTAEARKTWLEEQGMILKQTFCEVPDLDRIIPVLLEHGLERLPEHCKLSPGIPLKPMLAHPTRGISEVLKRFEEAAFTCEYKYDGQRAQIHALEGGEVKIFSRNQEDNTGKYPDIISRIPKIKLPSVTSFILDTEAVAWDREKKQIQPFQVLTTRKRKEVDASEIQVQVCLYAFDLIYLNGESLVREPLSRRRQLLRENFVETEGEFVFATSLDTKDIEQIAEFLEQSVKDSCEGLMVKTLDVDATYEIAKRSHNWLKLKKDYLDGVGDTLDLVVIGAYLGRGKRAGRYGGFLLASYDEDSEELQAICKLGTGFSDEELEEHHQSLKALVLPSPRPYVRIDGAVIPDHWLDPSAVWEVKCADLSLSPIYPAARGLVDSDKGISLRFPRFIRVREDKQPEQATTSAQVACLYRKQSQIQNQQGEDSGSDPEDTY
B1 was tested, and the “amount of ligation products after polβ dGTP:C insertion in the coupled assay, absence against presence of the N-terminal region of LIG1, earlier time points (10-60 s)” value was roughly 20 fold.
